Assay results taken from PMC2191090 (The Journal of Experimental Medicine, 1993).
Blank lines part the entries; values can stand above or below the molecule they belong to. Where no end group is shown, it is not given here. The star is where a group is joined. Biotin = O=C1N[C@H]2[C@H](CS[C@H]2CCCCC(=O)*)N1; 22‑Å spacer = not defined here

What was measured:
[1] = target: HLA-DR7 (DRB1*0701) on Mann cells (human (endogenous in Mann)); assay: flow cytometry on cells
[2] = target: HLA-DR4 (DRB1*0401) on Priess cells (human (endogenous in Priess)); assay: flow cytometry on cells
surface-expressed HLA-DR = assay: Specificity of peptide binding to surface-expressed HLA-DR; set-up: species or system human; conditions: amino-terminal biotin via 22-A spacer
[3] = target: HLA-DR1 (DRB1*0101) on LG-2 cells (human (endogenous in LG-2)); assay: flow cytometry on cells
[4] = target: HLA-DR8 (DRB1*0801) on 23.1 cells (human (endogenous in 23.1)); assay: flow cytometry on cells
[5] = target: HLA-DR3 (DRB1*0301) on WT-20 cells (human (endogenous in WT-20)); assay: flow cytometry on cells
[6] = target: HLA-DR2 (DRB1*1501/DRB5*0101) on MST cells (human (endogenous in MST)); assay: flow cytometry on cells

relative mean log fluorescence [1]: 171
relative mean log fluorescence [2]: 189
Molecule: biotinylated synthetic Ig kappa chain C region peptide 188-202

relative mean log fluorescence [1]: 288
relative mean log fluorescence [2]: 215
B1: biotinylated synthetic invariant chain (Ii) peptide 97-120 (peptide)
peptide: {Biotin-22‑Å spacer}-LPKPPKPVSKMRMATPLLMQALPM
modifications: reading uncertain

The remaining lines, values behind:

Molecule: VGSDWRFLRGYHQYA [HLA-A2-1ike peptide 103-117]
effect of biotinylation on binding (in words) (surface-expressed HLA-DR): interfered with the normal mode of binding

B2: biotinylated synthetic HLA-DR alpha chain peptide 182-198 (peptide)
peptide: {Biotin-22‑Å spacer}-APSPLPETTENVVCALG
modifications: reading uncertain
relative mean log fluorescence [3]: 345
relative mean log fluorescence [4]: 172
relative mean log fluorescence [5]: 176
relative mean log fluorescence [6]: 148
relative mean log fluorescence [2]: 189
